For 3 molecules, IC50 results are on record in patent publication EP4733393A1 (Todo, Tomoki, dated 2026).

Test [1] concerns the target T1, human CTLA-4 (human, UniProt P16410 36-161).
T1 sequence (looked up): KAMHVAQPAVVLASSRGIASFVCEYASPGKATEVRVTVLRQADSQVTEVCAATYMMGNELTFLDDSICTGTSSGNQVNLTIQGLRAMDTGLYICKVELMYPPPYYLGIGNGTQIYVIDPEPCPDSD
As to the kind of experiment: AlphaLISA Human CTLA-4/CD80 Binding Kit, inhibition of human CTLA-4/CD80 (B7-1) binding; concentration as human Fc (Fig. 7-3-1 B). For orientation: Bead proximity is the source of the signal in Alpha formats.

Test [2] has as its target T1, human CTLA-4. As to the kind of experiment: AlphaLISA Human CTLA-4/CD80 Binding Kit, inhibition of human CTLA-4/CD80 (B7-1) binding; concentration as human Fc (Fig. 7-3-2 B).
The next test has as its target T2, mouse PD-1 (mouse, UniProt Q02242 25-167).
T2 sequence (looked up): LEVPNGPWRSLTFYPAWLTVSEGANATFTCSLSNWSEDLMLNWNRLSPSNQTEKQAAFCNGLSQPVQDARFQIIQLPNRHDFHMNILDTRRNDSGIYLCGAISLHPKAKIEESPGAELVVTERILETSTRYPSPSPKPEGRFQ
As to the kind of experiment: AlphaLISA Mouse PD-1 and PD-L1 Binding Kit, inhibition of mouse PD-1/PD-L1 binding; concentration as human Fc (Fig. 1-3-1 B).

B1: anti-human CTLA4 antibody (derived from ipilimumab), expressed from the Ipi/SV-01 plasmid (antibody, human IgG1, kappa, V domains shown)
VH: QVQLVESGGGVVQPGRSLRLSCAASGFTFSSYTMHWVRQAPGKGLEWVTSISYDGNNKYYADSVKGRFTISRDNSKNTLYLQMNSLRAEDTAIYYCARTGWLGPFDYWGQGTLVTVSS
VL: not shown
notes: also called antibody encoded by T-Ipi
Consider B1, for which the IC50 (commonly the concentration that gives 50% inhibition) with human CTLA-4 [1] is 8.24 ng/mL.

B2: anti-human CTLA4 antibody (derived from ticilimumab), expressed from the Tic/SV-01 plasmid (antibody, human IgG2, kappa, V domains shown)
VH: QVQLVESGGGVVQPGRSLRLSCAASGFTFSSYGMHWVRQAPGKGLEWVAVIWYDGSNKYYADSVKGRFTISRDNSKNTLYLQMNSLRAEDTAVYYCARDPRGATLYYYYYGMDVWGQGTTVTVSS
VL: DIQMTQSPSSLSASVGDRVTITCRASQSINSYLDWYQQKPGKAPKLLIYAASSLQSGVPSRFSGSGSGTDFTLTISSLQPEDFATYYCQQYYSTPFTFGPGTKVEIKR
notes: also called antibody encoded by T-Tic; derived from ticilimumab (tremelimumab)
On to B2, for which, in the test with human CTLA-4 [2], the IC50 was 25.4 ng/mL.

B3: anti-mouse PD-1 antibody (derived from J43) with human IgG4 heavy chain constant region and human λ light chain constant region, expressed from the J43/SV-01 … (antibody, V domains shown)
VH: EVRLLESGGGLVKPEGSLKLSCVASGFTFSDYFMSWVRQAPGKGLEWVAHIYTKSYNYATYYSGSVKGRFTISRDDSRSMVYLQMNNLRTEDTATYYCTRDGSGYPSLDFWGQGTQVTVSS
VL: YELTQPPSASVVGETVKITCSGDQLPKYFADWFHQRSDQTILQVIYDDNKRPSGIPERISGSSSGTTATLTIRDVRAEDEGDYYCFSGYVDSDSKLYVFGSGTQLTVLG
notes: also called antibody encoded by T-J43
Regarding B3, in the test with mouse PD-1, the IC50 was found to be 6.81 ng/mL.
